Reference: PMC12838833

Molecular target: Staphylococcus aureus DltA (D-alanine-D-alanyl carrier protein ligase) (Staphylococcus aureus) (UniProt Q2FZW6)
UniProt Q2FZW6, sequence (Q2FZW6 whole entry): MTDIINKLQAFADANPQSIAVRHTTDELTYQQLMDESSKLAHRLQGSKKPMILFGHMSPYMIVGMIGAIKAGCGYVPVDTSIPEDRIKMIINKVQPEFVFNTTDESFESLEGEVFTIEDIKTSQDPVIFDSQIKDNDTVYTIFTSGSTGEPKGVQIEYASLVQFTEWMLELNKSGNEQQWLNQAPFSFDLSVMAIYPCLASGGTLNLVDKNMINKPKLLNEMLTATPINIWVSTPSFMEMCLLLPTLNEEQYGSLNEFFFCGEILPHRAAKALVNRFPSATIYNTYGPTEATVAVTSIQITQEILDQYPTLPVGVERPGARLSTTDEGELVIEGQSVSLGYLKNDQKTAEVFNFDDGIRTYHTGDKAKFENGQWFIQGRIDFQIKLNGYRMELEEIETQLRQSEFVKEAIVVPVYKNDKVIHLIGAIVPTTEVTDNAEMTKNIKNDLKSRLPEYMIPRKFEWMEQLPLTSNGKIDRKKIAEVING

B1: Wild-type Staphylococcus aureus D-alanyl carrier protein DltC (natural protein)
chain: MEFREQVLNLLAEVAENDIVKENPDVEIFEEGIIDSFQTVGLLLEIQNKLDIEVSIMDFDRDEWATPNKIVEALEELR
modifications: 4'-phosphopantetheine (Ppant) on Ser36 (co-expressed with AcpS to produce Ppant-attached SaDltC)
Q: For B1, which SaDltA adenylation activity (pyrophosphate detection assay, initial rates; 5 uM SaDltA with 300 uM SaDltC, 37 °C), increase over SaDltA alone is on record?
A: 22.3 fold
